Measured values: US6835382B2, “Ii peptide therapeutics to enhance antigen presentation” (University of Massachusetts, priority 1996, dated 2004)
Non-standard residues stand in square brackets, D forms with d. hArg = N=C(N)NCCCC[C@H](N)C(=O)O; Cit = NC(=O)NCCC[C@H](N)C(=O)O; Orn = NCCC[C@H](N)C(=O)O

Target: T1, murine E^d MHC class II allele (Mus musculus, UniProt P01904+P01915)
T1 sequence (P01904 26-255): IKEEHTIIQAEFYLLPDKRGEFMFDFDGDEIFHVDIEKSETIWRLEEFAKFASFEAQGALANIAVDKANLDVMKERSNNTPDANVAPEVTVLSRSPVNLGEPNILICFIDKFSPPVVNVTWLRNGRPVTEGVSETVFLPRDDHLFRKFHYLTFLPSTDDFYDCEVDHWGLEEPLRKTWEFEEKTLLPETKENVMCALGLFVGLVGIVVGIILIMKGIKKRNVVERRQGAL
T1 sequence (P01915 27-264 limits assumed): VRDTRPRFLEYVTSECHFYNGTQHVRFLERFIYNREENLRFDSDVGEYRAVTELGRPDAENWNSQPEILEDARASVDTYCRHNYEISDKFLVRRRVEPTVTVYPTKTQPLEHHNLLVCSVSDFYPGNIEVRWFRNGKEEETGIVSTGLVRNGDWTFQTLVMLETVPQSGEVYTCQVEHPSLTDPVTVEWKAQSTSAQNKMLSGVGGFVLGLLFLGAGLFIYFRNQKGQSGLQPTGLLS
Experiment: processed antigen assay, E^d allele (APC pulsed with native HEL)
Format: cell-based
Design: The A20 and CH27 B cell lymphoma lines express H-2^d and H-2^k alleles, respectively; endogenous in cells; host or cells: A20 B cell lymphoma (mitomycin C-treated or paraformaldehyde-fixed)
Conditions: AE peptide 64 μM; for T cell response relative to baseline (None = 1.0), 5 μM HEL E^d, first value / T cell response relative to baseline (None = 1.0), 5 μM HEL E^d, second value / T cell response relative to baseline (None = 1.0), 10 μM HEL E^d, first value / T cell response relative to baseline (None = 1.0), 10 μM HEL E^d, second value / T cell response relative to baseline (None = 1.0), 20 μM HEL E^d, first value / T cell response relative to baseline (None = 1.0), 20 μM HEL E^d, second value: Table 29; for T cell response relative to baseline (None = 1.0), 5 μM HEL E^d, first value / T cell response relative to baseline (None = 1.0), 5 μM HEL E^d, second value: native HEL prepulse 5 μM; for T cell response relative to baseline (None = 1.0), 5 μM HEL E^d, first value / T cell response relative to baseline (None = 1.0), 10 μM HEL E^d, first value / T cell response relative to baseline (None = 1.0), 20 μM HEL E^d, first value: supernatant dilution 1:4 (first value); for T cell response relative to baseline (None = 1.0), 5 μM HEL E^d, second value / T cell response relative to baseline (None = 1.0), 10 μM HEL E^d, second value / T cell response relative to baseline (None = 1.0), 20 μM HEL E^d, second value: supernatant dilution 1:8 (second value); for T cell response relative to baseline (None = 1.00), E^d: Table 31
Procedure: In a third type of assay, the “processed antigen assay”, certain of the AE101 series of peptides inhibit stimulation of specific T cell hybridomas by antigenic peptides which are derived from the endogenous processing of a native protein antigen. This assay, which is related to the peptide prepulse assay, is performed by incubating APC with native protein antigen for 8 h, after which the pulsed APC are washed and treated with mitomycin C. Those pulsed APC are then combined with AE101 series peptides and T cell hybridomas and are incubated for 24 h. After that incubation, an aliquot of the culture supernatant is transferred to a second culture to measure T cell stimulation, as reflected in the effect of released interleukins on the growth of an interleukin-dependent, indicator cell line. During the 8 h incubation with native protein antigen, the protein antigen is taken into the APC. The native protein enters the processing pathway within the APC, where it is enzymatically cleaved to peptide fragments. Those peptide fragments with high affinity for the particular MHC class II molecules produced by the APC form antigenic peptide/MHC class II complexes which are transported to the cell surface. At the cell surface, the MHC class II molecules are contacted by the AE101 peptides, which cause the release of the antigenic peptide by the same mechanism proposed for the “peptide prepulse” assay above.
The “processed antigen assay” was carried out under essentially the same conditions as the “peptide prepulse assay”, with the following modifications. Untreated APC were incubated at 1×10^6/mL in 24-well plates (1 mL/well) with native protein antigen for 8 h. Following that incubation, the pulsed APC were washed, treated with mitomycin C, and washed again. AE101 series peptide was added at 64 μM, 16 μM, 4 μM, and 1 μM concentrations for 24 h in the presence of the T cell hybridoma specific for the antigenic peptide. Interleukin release from these cultures was measured by proliferation of HT-2 cells to interleukins in supernatants transferred from the primary culture. The baseline T cell response was measured by culturing T hybridoma cells with the native antigen-prepulsed APC in the absence of AE101 series peptides.
The “processed antigen assay” was carried out under essentially the same conditions as the “peptide prepulse” assay, with the following modifications. Untreated APC were incubated at 1×10^6/mL in 24-well plates (1 mL/well) with native protein antigen for 8 h. Following incubation, the pulsed APC were washed, treated with mitomycin C, and were washed again. The assay conditions were then as described for “peptide prepulse” above. The baseline T cell response was measured by culturing T hybridoma cells with the native antigen-prepulsed APC in the absence of AE101 peptides.
Table 2.9: Activities of substitution series at Leucine^80 in AE114 in a processed antigen assay. […] The results in this assay constitute, relatively, a mirror image of the result in the simultaneous assay (Example 1, Table 7) and parallel those of the antigenic peptide prepulse assay (Example 5, Table 24). Untreated APC were incubated with native HEL, instead of antigenic peptide, for 8 h. After incubation, the pulsed cells were washed and mitomycin C treated before being cocultured with AE-peptides and T cell hybridomas. Wells containing only T cells and native HEL-prepulsed APC were used to determine the Baseline response, or 1, in the absence of AE peptides. The concentration of AE peptide used was 64 μM for these assays. The supernatant dilutions used in the HT-2 cell assay were 1:4 (first value) and 1:8 (second value).

[1] = Table 32, native HEL prepulse 20 μM, supernatant dilution 1:4
[2] = Table 30, native HEL prepulse 10 μM, supernatant dilution 1:8
[3] = native HEL prepulse 10 μM, supernatant dilution 1:4

Substance: Ac-Y[hArg]MKLPKSAK-NH2 [AE132]
- T cell response relative to baseline (None = 1.0), E^d [1]: 0.48

Substance: Ac-LRMK K PK-NH2 (Ac-LRMKKPK-NH2) [AE229]
- T cell response relative to baseline (None = 1.0), 5 μM HEL E^d, first value: 0.38,
- T cell response relative to baseline (None = 1.0), 5 μM HEL E^d, second value: 0.58
- T cell response relative to baseline (None = 1.0), 10 μM HEL E^d, first value (native HEL prepulse 10 μM): 0.55,
- T cell response relative to baseline (None = 1.0), 10 μM HEL E^d, second value (native HEL prepulse 10 μM): 0.49
- T cell response relative to baseline (None = 1.0), 20 μM HEL E^d, first value (native HEL prepulse 20 μM): 0.71,
- T cell response relative to baseline (None = 1.0), 20 μM HEL E^d, second value (native HEL prepulse 20 μM): 0.62

Substance: Ac-LR (mL) KyPK-NH2 [AE304]
- T cell response relative to baseline (None = 1.0), E^d [2]: 0.77

Substance: Ac-ARNKNPF-NH2 [AE347]
- T cell response relative to baseline (None = 1.00), E^d [3]: 0.80

Substance: Ac-LRMKLP N-NH2 (Ac-LRMKLPN-NH2) [AE246]
- T cell response relative to baseline (None = 1.0), E^d [1]: 0.72

Substance: Ac-LRNKNPK-NH2 [AE349]
- T cell response relative to baseline (None = 1.00), E^d [3]: 0.64

Substance: Ac-LRLKYPk-NH2 [AE307]
- T cell response relative to baseline (None = 1.0), E^d [2]: 0.48

Substance: Ac-LRMK E PK-NH2 (Ac-LRMKEPK-NH2) [AE231]
- T cell response relative to baseline (None = 1.0), 5 μM HEL E^d, first value: 0.96,
- T cell response relative to baseline (None = 1.0), 5 μM HEL E^d, second value: 0.85
- T cell response relative to baseline (None = 1.0), 10 μM HEL E^d, first value (native HEL prepulse 10 μM): 0.94,
- T cell response relative to baseline (None = 1.0), 10 μM HEL E^d, second value (native HEL prepulse 10 μM): 0.83
- T cell response relative to baseline (None = 1.0), 20 μM HEL E^d, first value (native HEL prepulse 20 μM): 1.0
- T cell response relative to baseline (None = 1.0), 20 μM HEL E^d, second value (native HEL prepulse 20 μM): 1.1

Substance: Ac-LR (mL) KYPK-NH2 [AE303]
- T cell response relative to baseline (None = 1.0), E^d [2]: 0.82

Substance: Ac-ARNKNPK-NH2 [AE346]
- T cell response relative to baseline (None = 1.00), E^d [3]: 0.78

Substance: Ac-LR L KLPK-NH2 (Ac-LRLKLPK-NH2; not fully specified; printed as Ac-LR L KLPK-NH2) [AE206]
- T cell response relative to baseline (None = 1.0), E^d [2]: 0.22
- T cell response relative to baseline (None = 1.00), E^d [3]: 0.41
- T cell response relative to baseline (None = 1.0), E^d [1]: 0.46

Substance: Ac-ARNKLPK-NH2 [AE344]
- T cell response relative to baseline (None = 1.00), E^d [3]: 0.76

Substance: Ac-LR (mL) KLPK-NH2 [AE302]
- T cell response relative to baseline (None = 1.0), E^d [2]: 0.51

Substance: Ac-LR[Orn]KLPK-NH2 [AE195]
- T cell response relative to baseline (None = 1.00), E^d [3]: 0.31

Substance: Ac-LRMKLPK-NH2 [AE114]
- T cell response relative to baseline (None = 1.0), 5 μM HEL E^d, first value: 0.23,
- T cell response relative to baseline (None = 1.0), 5 μM HEL E^d, second value: 0.37
- T cell response relative to baseline (None = 1.0), 10 μM HEL E^d, first value (native HEL prepulse 10 μM): 0.29,
- T cell response relative to baseline (None = 1.0), 10 μM HEL E^d, second value (native HEL prepulse 10 μM): 0.28
- T cell response relative to baseline (None = 1.0), 20 μM HEL E^d, first value (native HEL prepulse 20 μM): 0.53,
- T cell response relative to baseline (None = 1.0), 20 μM HEL E^d, second value (native HEL prepulse 20 μM): 0.44
- T cell response relative to baseline (None = 1.0), E^d [2]: 0.22
- T cell response relative to baseline (None = 1.00), E^d [3]: 0.49
- T cell response relative to baseline (None = 1.0), E^d [1]: 0.40
- T cell response relative to baseline (None = 1.0), E^d (Table 33, native HEL prepulse 10 μM, supernatant dilution 1:8): 0.37
- Activity in processed antigen assay, E^d (baseline = 1.0) (Table 34, native HEL 10 μM prepulse, supernatant 1:8): 0.22

Substance: Ac-LRMK HArg PK-NH2 (Ac-LRMK[hArg]PK-NH2; SMILES CSCC[C@H](NC(=O)[C@H](CCCNC(=N)N)NC(=O)[C@H](CC(C)C)NC(C)=O)C(=O)N[C@@H](CCCCN)C(=O)N[C@@H](CCCCNC(=N)N)C(=O)N1CCC[C@H]1C(=O)N[C@@H](CCCCN)C(N)=O) [AE227]
- T cell response relative to baseline (None = 1.0), 5 μM HEL E^d, first value: 0.18,
- T cell response relative to baseline (None = 1.0), 5 μM HEL E^d, second value: 0.33
- T cell response relative to baseline (None = 1.0), 10 μM HEL E^d, first value (native HEL prepulse 10 μM): 0.18,
- T cell response relative to baseline (None = 1.0), 10 μM HEL E^d, second value (native HEL prepulse 10 μM): 0.19
- T cell response relative to baseline (None = 1.0), 20 μM HEL E^d, first value (native HEL prepulse 20 μM): 0.45,
- T cell response relative to baseline (None = 1.0), 20 μM HEL E^d, second value (native HEL prepulse 20 μM): 0.36
- T cell response relative to baseline (None = 1.00), E^d [3]: 0.35

Substance: Ac-LRLK HArg PK-NH2 [AE341]
- T cell response relative to baseline (None = 1.00), E^d [3]: 0.12

Substance: Ac-L[Cit]NKLPK-NH2 [AE343]
- T cell response relative to baseline (None = 1.00), E^d [3]: 0.69

Substance: Ac-LRLKWPK-NH2 [AE309]
- T cell response relative to baseline (None = 1.0), E^d [2]: 0.29
- T cell response relative to baseline (None = 1.00), E^d [3]: 0.44
- T cell response relative to baseline (None = 1.0), E^d [1]: 0.55

Substance: Ac-LRMKLP k-NH2 [AE166]
- T cell response relative to baseline (None = 1.0), E^d [2]: 0.36

Substance: Ac-LRMKLP F-NH2 (Ac-LRMKLPF-NH2) [AE248]
- T cell response relative to baseline (None = 1.00), E^d [3]: 0.30

Substance: Ac-LRMK N PK-NH2 (Ac-LRMKNPK-NH2) [AE232]
- T cell response relative to baseline (None = 1.0), 5 μM HEL E^d, first value: 0.50,
- T cell response relative to baseline (None = 1.0), 5 μM HEL E^d, second value: 0.50
- T cell response relative to baseline (None = 1.0), 10 μM HEL E^d, first value (native HEL prepulse 10 μM): 0.68,
- T cell response relative to baseline (None = 1.0), 10 μM HEL E^d, second value (native HEL prepulse 10 μM): 0.61
- T cell response relative to baseline (None = 1.0), 20 μM HEL E^d, first value (native HEL prepulse 20 μM): 0.97,
- T cell response relative to baseline (None = 1.0), 20 μM HEL E^d, second value (native HEL prepulse 20 μM): 0.83
- T cell response relative to baseline (None = 1.00), E^d [3]: 0.46
